Reference: publication PMC4538822, “Ribosomal protein L10(L12)4 autoregulates expression of the Bacillus subtilis rplJL operon by a transcription attenuation mechanism”

How the values were obtained:
[1] = target: T1, L10(L12)4 complex (ribosomal proteins L10 and L12) (Bacillus subtilis (source strain of the …, UniProt P42923;P02394 1-166;1-123)); experiment: filter binding; 3 mM Mg2+; yeast RNA competitor 0.2 mg/ml; apparent Kd; Filter binding: 30 mM Tris-HCl pH 7.6, 175 mM KCl, 3 mM MgCl2, 10% glycerol, 0.2 mg/ml yeast RNA, 50 ug/ml BSA, 0.01 nM RNA, 37 C 30 min; in-line probing: 50 mM Tris-HCl pH 8.3, 20 mM MgCl2, 100 mM KCl, 15% glycerol, 25 C 40 h; boundary: 37 C 30 min; details: protein: recombinant; tags: N-terminal His6 on L10; L12 native; copies: 1;4; label: 5' 32P; anti-antiterminator (AAT) structure with kink-turn
T1 sequence 1: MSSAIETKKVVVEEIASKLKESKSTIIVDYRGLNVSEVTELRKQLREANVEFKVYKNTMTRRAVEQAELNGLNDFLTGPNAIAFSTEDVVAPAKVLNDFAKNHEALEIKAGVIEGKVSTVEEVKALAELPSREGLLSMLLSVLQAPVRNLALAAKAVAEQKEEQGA
T1 sequence 2: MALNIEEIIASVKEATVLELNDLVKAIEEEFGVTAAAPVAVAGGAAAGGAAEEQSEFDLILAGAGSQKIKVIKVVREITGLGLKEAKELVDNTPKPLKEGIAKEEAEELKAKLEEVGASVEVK

[2] = target: T1, L10(L12)4 complex (ribosomal proteins …); experiment: 3' boundary analysis (native gel EMSA); 1 or 3 uM L10(L12)4; Filter binding: 30 mM Tris-HCl pH 7.6, 175 mM KCl, 3 mM MgCl2, 10% glycerol, 0.2 mg/ml yeast RNA, 50 ug/ml BSA, 0.01 nM RNA, 37 C 30 min; in-line probing: 50 mM Tris-HCl pH 8.3, 20 mM MgCl2, 100 mM KCl, 15% glycerol, 25 C 40 h; boundary: 37 C 30 min; details: protein: recombinant, tags: N-terminal His6 on L10, copies: 1;4, label: 5' 32P, AAT structure complete (3' end of AAT at +72)

B1: rplJL leader RNA +13 to +118 (structured_RNA)
RNA: AAUAUCAUUUAUACCGUAGACAGUAGGGGCCUAACCGCUUAAUUAUCCUACCGAGGUGUAUAUUAUCACAGCUAUUACGUUACGUAUGCUUGUAUAUACAGCCUCC
How did the Kd [1] turn out when B1 was run?
Its Kd is 33 ± 10 nM.

B2: rplJL leader RNA +13 to +76 (3' boundary, bound) (structured_RNA)
RNA: AAUAUCAUUUAUACCGUAGACAGUAGGGGCCUAACCGCUUAAUUAUCCUACCGAGGUGUAUAUU
Does B2 bind [2]?
Result: binds
